# Measurements as given in paper PMC4175327, “Distinguishing Closely Related Amyloid Precursors Using an RNA Aptamer*”.
# Experiments:
# [1] = target: T1, human beta2-microglobulin (hβ2m), monomer (human, UniProt P61769 21-119); experiment: intrinsic Trp fluorescence quenching; EC50; Hill slope 0.99 ± 0.06; 1 uM protein; 50 mM MES, 120 mM NaCl, pH 6.2; fluorescence and NMR at 25 °C (NMR plus 0.02% azide, 0.1 mM EDTA, 10% D2O); SPR temperature not stated; details: tags: biotin (N terminus, Lys-7 and/or Lys-92), immobilized, for SPR; hairpin with bulges, U tetraloop
# [2] = target: T1, human beta2-microglobulin (hβ2m), …; experiment: intrinsic Trp fluorescence quenching; 1 uM protein; 50 mM MES, 120 mM NaCl, pH 6.2; fluorescence and NMR at 25 °C (NMR plus 0.02% azide, 0.1 mM EDTA, 10% D2O); SPR temperature not stated; details: tags: biotin (N terminus, Lys-7 and/or Lys-92), immobilized, for SPR; hairpin with bulges, U tetraloop
# T1 sequence (P61769 21-119): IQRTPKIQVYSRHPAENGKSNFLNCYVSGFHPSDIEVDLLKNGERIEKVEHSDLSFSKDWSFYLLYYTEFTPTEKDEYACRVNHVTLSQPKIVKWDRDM
Binder,apparent K (half saturation) [1] [nM],binding result [2]
"GGGAAUUCUGAGCUACUCCCUUUUGGGCCCGGCUAUGAUUCCCG (XNA, 2'-fluoro C and U (3'-terminal G is ribo)) [2'F B6min]",223 ± 10,
"GGGAAUUCUGAGCUACUCCCUUUUGGGCCCGGCUAUGAUUCCCG (structured_RNA, none (2'OH)) [2'OH B6min]",,no binding
